The values that follow come from PMC12167484, “Specific phosphoinositide interaction of Jps1 is a key feature during unconventional secretion in Ustilago maydis” (The Journal of Biological Chemistry, 2025).

One test addresses T1, Cts1 (Mycosarcoma maydis, UniProt A0A0D1DVM8).
T1 construct: gene UMAG_10419; native Cts1, extracellular on intact U. maydis AB33 cells or in native cell extracts
T1 sequence (A0A0D1DVM8 1-502): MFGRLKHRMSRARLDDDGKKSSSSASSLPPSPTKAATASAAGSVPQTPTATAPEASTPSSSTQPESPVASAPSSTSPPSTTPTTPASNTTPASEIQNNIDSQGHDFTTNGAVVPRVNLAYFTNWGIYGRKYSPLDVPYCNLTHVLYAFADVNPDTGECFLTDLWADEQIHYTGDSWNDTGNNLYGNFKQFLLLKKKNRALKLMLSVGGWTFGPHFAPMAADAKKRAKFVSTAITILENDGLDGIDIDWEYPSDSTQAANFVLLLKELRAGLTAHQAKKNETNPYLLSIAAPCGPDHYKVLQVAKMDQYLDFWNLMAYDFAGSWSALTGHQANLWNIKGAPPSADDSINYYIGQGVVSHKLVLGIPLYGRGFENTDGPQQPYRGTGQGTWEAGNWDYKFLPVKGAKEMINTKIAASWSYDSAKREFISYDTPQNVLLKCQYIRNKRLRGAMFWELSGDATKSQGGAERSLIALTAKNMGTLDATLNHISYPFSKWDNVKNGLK
Kind of test: fluorogenic chitinase assay, intact cells or native extract. It is filed as cell-based. To be noted: KHM buffer (110 mM potassium acetate, 20 mM Hepes, 2 mM MgCl2), 25 °C.

The target of test [1] is Hebeloma cylindrosporum Jps1, full-length recombinant (Hebeloma cylindrosporum). The test is described as follows: SEC-MALS; after SEC purification the sample was applied to a Superdex 200 10/30 column coupled to a miniDAWN TREOS light scattering detector and a refractive index detector; monomer to dimer. On the technique in general: SEC sorts molecules by how far they enter the pores of the column.

In a further test the target is T2, UmJps1 (Jps1^1-609) (Mycosarcoma maydis, UniProt A0A0D1C3B2).
T2 construct: gene UMAG_03776; full length, 609 residues; 6xHis-Jps1 made in E. coli Rosetta(DE3) pLyS (pET22b, C-terminal His-tag in strip assay); homodimer 134 kDa
T2 sequence (A0A0D1C3B2 1-609): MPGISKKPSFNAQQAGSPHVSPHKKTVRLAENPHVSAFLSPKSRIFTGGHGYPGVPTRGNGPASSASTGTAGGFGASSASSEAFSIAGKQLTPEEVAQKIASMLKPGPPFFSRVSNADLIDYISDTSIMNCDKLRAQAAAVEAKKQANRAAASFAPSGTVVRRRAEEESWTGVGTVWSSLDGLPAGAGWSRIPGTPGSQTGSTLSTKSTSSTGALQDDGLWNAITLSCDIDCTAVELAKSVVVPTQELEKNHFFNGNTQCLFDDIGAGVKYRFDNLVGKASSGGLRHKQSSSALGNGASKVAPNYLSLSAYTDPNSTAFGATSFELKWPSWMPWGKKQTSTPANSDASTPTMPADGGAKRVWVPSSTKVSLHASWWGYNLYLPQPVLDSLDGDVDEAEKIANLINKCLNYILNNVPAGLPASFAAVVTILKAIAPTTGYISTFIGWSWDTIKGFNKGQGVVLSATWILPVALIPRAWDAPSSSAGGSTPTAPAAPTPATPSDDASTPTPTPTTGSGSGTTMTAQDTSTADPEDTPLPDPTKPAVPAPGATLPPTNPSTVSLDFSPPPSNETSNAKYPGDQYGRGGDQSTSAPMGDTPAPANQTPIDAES
Kind of test: liposome co-sedimentation, SDS-PAGE. It is filed as binding. To be noted: DOPC:cholesterol:PIP 80:15:5 (with cholesterol); protein:lipid 1:5000; pH 7.5, room temperature.

In another test the target is T3, HcJps1 (Hebeloma cylindrosporum, UniProt A0A0C3CFZ0).
T3 construct: gene M413DRAFT_206302; full length, 287 residues; 6xHis-GB1 fusion made in E. coli (GB1 tag cleaved with TEV before SEC; codon-optimised gene for U. maydis)
T3 sequence (A0A0C3CFZ0 1-287): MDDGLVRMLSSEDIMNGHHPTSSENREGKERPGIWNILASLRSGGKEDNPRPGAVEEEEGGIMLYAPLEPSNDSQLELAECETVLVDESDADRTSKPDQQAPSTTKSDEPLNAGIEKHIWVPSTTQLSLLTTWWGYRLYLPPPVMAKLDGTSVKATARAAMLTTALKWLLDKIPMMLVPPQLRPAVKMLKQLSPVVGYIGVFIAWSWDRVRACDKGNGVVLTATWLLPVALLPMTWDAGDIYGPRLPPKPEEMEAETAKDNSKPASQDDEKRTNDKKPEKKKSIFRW
The test is described as follows: surface plasmon resonance, immobilised liposomes, steady-state affinity. It is filed as binding. The settings on record: DOPC/PI(4,5)P2 liposomes (1 mM lipid) on LP chip, DOPC reference; 20 mM Hepes pH 7.5, 20 mM KCl, 200 mM NaCl; 0.2-6.4 μM protein. For orientation: In SPR one partner is held on a chip, and binding of the other changes the refractive index at the surface.

The target in test [2] is Sporisorium reilianum Jps1, full-length recombinant (Sporisorium reilianum). Kind of test: SEC-MALS; after SEC purification the sample was applied to a Superdex 200 10/30 column coupled to a miniDAWN TREOS light scattering detector and a refractive index detector; monomer to dimer.
Test [3] has the same target. The test is described as follows: mass photometry; TwoMP mass photometer, protein at 10 nM in Hepes buffer, room temperature; monomer to dimer.
The target in test [4] is Ustilago maydis Jps1, full-length recombinant (Jps1^1-609) (Ustilago maydis). The test is described as follows: SEC-MALS; after SEC purification the sample was applied to a Superdex 200 10/30 column coupled to a miniDAWN TREOS light scattering detector and a refractive index detector; monomer to dimer.
Test [5] has the same target. Kind of test: mass photometry; TwoMP mass photometer, protein at 10 nM in Hepes buffer, room temperature; monomer to dimer.
The target of test [6] is Ustilago maydis Jps1^1-484 (lacking the unstructured C-terminus) (Ustilago maydis). Kind of test: SAXS; P12 beamline, batch mode, 10 °C, 0.6 mg/ml purified Jps1^1-484; rigid body modeling of the dimer with CORAL.
Test [7] has the same target. The test is described as follows: SEC-MALS; after SEC purification the sample was applied to a Superdex 200 10/30 column coupled to a miniDAWN TREOS light scattering detector and a refractive index detector; monomer to dimer.

For the compound `CC(=O)N[C@H]1[C@H](Oc2ccc3c(C)cc(=O)oc3c2)O[C@H](CO)[C@@H](O[C@@H]2O[C@H](CO)[C@@H](O[C@@H]3O[C@H](CO)[C@@H](O)[C@H](O)[C@H]3NC(C)=O)[C@H](O)[C@H]2NC(C)=O)[C@@H]1O` [MUC, 4-methylumbelliferyl-β-D-N, N′, N’’-triacetylchitotrioside], the “fluorogenic chitinase assay, intact cells or native extract” value at Cts1 is on record as “MUC, a fluorogenic substrate 4-methylumbelliferyl-β-D-N, N′, N’’-triacetylchitotrioside”.

For “Hebeloma cylindrosporum Jps1, full-length recombinant (natural protein)”, the stoichiometry N in test [1] was determined as 2. With PI(4,5)P2, the “% of input protein bound” value at UmJps1 (Jps1^1-609) is on record as ~ 50%. Further, on HcJps1, binding was put at a Kd of 900 nM. In the case of “Sporisorium reilianum Jps1, full-length recombinant (natural protein)”, the stoichiometry N in [2] and in test [3] was 2 in each case. On to “Ustilago maydis Jps1, full-length recombinant (Jps1^1-609) (natural protein)”, for which the stoichiometry N in test [4] and in test [5] was 2 throughout. In addition, the percent of particles in the dimer fraction in [5] worked out at 69%.

As for “Ustilago maydis Jps1^1-484 (lacking the unstructured C-terminus) (domain or fragment)”, the stoichiometry N in test [6] and in [7] was 2 each time.

One may read the stoichiometry N as the number of molecules, sites or subunits per partner or assembly. A word on the Kd: it is the constant that tells how readily two partners part at equilibrium. A high value points to weaker binding.
